One block for each binder: values may come before it. Where no end group is shown, it is not given here. [ ]: non-standard residue; d: D form. sY = N[C@@H](Cc1ccc(OS(=O)(=O)O)cc1)C(=O)O
How the values were obtained:
[1] = biological target: Y1 scFv (human single-chain Fv antibody fragment Y1); assay: competition ELISA on glycocalicin; peptide 25μM
[2] = biological target: Y1 scFv (human single-chain Fv antibody fragment Y1); assay: competition ELISA on glycocalicin; peptide 200μM
[3] = biological target: Y1 scFv (human single-chain Fv antibody fragment Y1); assay: competition FACS on washed platelets; peptide 2.5μM
[4] = biological target: Y1 scFv (human single-chain Fv antibody fragment Y1); assay: competition ELISA on glycocalicin; peptide 0.5μM
[5] = biological target: Y1 scFv (human single-chain Fv antibody fragment Y1); assay: competition FACS on washed platelets; peptide 200μM
[6] = biological target: Y1 scFv (human single-chain Fv antibody fragment Y1); assay: competition ELISA on glycocalicin; peptide 2.5μM
[7] = biological target: Y1 scFv (human single-chain Fv antibody fragment Y1); assay: competition ELISA, Y1 scFv on glycocalicin
[8] = biological target: human platelet glycoprotein Ibα (GPIbα) on platelets or in platelet lysates (human) (UniProt P07359); assay: FACS on washed platelets, control without peptide
[9] = biological target: human platelet glycoprotein Ibα (GPIbα) on platelets or in platelet lysates (human) (UniProt P07359); assay: cell-based or functional assay
[10] = biological target: Y1 scFv (human single-chain Fv antibody fragment Y1); assay: competition ELISA on glycocalicin; peptide 0.5μM; conditions: remark: other sources report otherwise
[11] = biological target: Y1 scFv (human single-chain Fv antibody fragment Y1); assay: competition ELISA on glycocalicin; peptide 25μM; conditions: remark: other sources report otherwise
[12] = biological target: Y1 scFv (human single-chain Fv antibody fragment Y1); assay: competition ELISA on glycocalicin; peptide 2.5μM; conditions: remark: other sources report otherwise
[13] = biological target: Y1 scFv (human single-chain Fv antibody fragment Y1); assay: competition FACS on washed platelets; peptide 200μM; conditions: remark: other sources report otherwise
[14] = biological target: Y1 scFv (human single-chain Fv antibody fragment Y1); assay: competition FACS on washed platelets; peptide 2.5μM; conditions: remark: other sources report otherwise
[15] = biological target: Y1 scFv (human single-chain Fv antibody fragment Y1); assay: competition ELISA on glycocalicin; peptide 200μM; conditions: remark: other sources report otherwise
[16] = biological target: glycocalicin purified from human platelets (soluble extracellular fragment of GPIbα) (human) (UniProt P07359); assay: ELISA on glycocalicin
[17] = biological target: Y1 scFv (human single-chain Fv antibody fragment Y1); assay: competition ELISA on glycocalicin; first of three values, peptide taken as 200μM
[18] = biological target: Y1 scFv (human single-chain Fv antibody fragment Y1); assay: competition ELISA on glycocalicin, peptide taken as 2.5μM
[19] = biological target: Y1 scFv (human single-chain Fv antibody fragment Y1); assay: competition ELISA on glycocalicin, peptide taken as 25μM

residual binding of Y1 (% of baseline) [1]: 25% | residual binding of Y1 (% of baseline) [2]: 0% | residual binding of Y1 (% of baseline, Geo mean) [3]: 41% | residual binding of Y1 (% of baseline) [4]: 89% | residual binding of Y1 (% of baseline, Geo mean) [5]: 5% | residual binding of Y1 (% of baseline) [6]: 62%
Binder: GDEGDTDL[sY]D[sY][sY]PEEDTE [P-1-S, sulfated synthetic peptide of GPIbα residues 268-285]

peptide concentration at which Y1 binding is effectively inhibited [7]: 100 µM
Binder: QATE[sY]EYLDYDFLPETE [P-Y*YY, PSGL-1 N-terminal peptide sulfated on the first tyrosine]

residual binding of Y1 (% of baseline, Geo mean) [8]: 114% | 凝集作用%; washed platelets, ristocetin; Y1 scFv 12.5微克/毫升 [9]: 67% | 凝集作用%; washed platelets, ristocetin; Y1 scFv 14微克/毫升 [9]: 92% | 凝集作用%; washed platelets, ristocetin; Y1 scFv 25微克/毫升 [9]: 23% | 抑制百分比%; platelet-rich plasma, ristocetin; Y1 scFv25微克/毫升 [9]: 13% | 抑制百分比%; ristocetin-induced agglutination of washed platelets; Y1 scFv 25微克/毫升 [9]: 77% | 抑制百分比%; ristocetin-induced aggregation in platelet-rich plasma; Y1 scFv50微克/毫升 [9]: 80% | 抑制百分比%; washed platelets, ristocetin; Y1 scFv 12.5微克/毫升 [9]: 33% | 抑制百分比%; washed platelets, ristocetin; Y1 scFv 14微克/毫升 [9]: 8% | 聚集作用%; platelet-rich plasma, ristocetin; Y1 scFv25微克/毫升 [9]: 87% | 聚集作用%; platelet-rich plasma, ristocetin; Y1 scFv50微克/毫升 [9]: 20%
B1: Y1 scFv (human single-chain Fv antibody fragment Y1) (scFv)
scFv: EVQLVESGGGVVRPGGSLRLSCAASGFTFDDYGMSWVRQAPGKGLEWVSGINWNGGSTGYADSVKGRFTISRDNAKNSLYLQMNSLRAEDTAVYYCARMRAPVIWGQGTLVTVSRGGGGSGGGGSGGGGSSELTQDPAVSVALGQTVRITCQGDSLRSYYASWYQQKPGQAPVLVIYGKNNRPSGIPDRFSGSSSGNTASLTITGAQAEDEADYYCNSRDSSGNHVVFGGGTKLTVLGAAAEQKLISEEDLNGAA

residual binding of Y1 (% of baseline) [10]: 88% | residual binding of Y1 (% of baseline) [11]: 71% | residual binding of Y1 (% of baseline) [12]: 94% | residual binding of Y1 (% of baseline, Geo mean) [13]: 87% | residual binding of Y1 (% of baseline, Geo mean) [14]: 106% | residual binding of Y1 (% of baseline) [15]: 61%
Binder: GDEGDTDLYDYYPEEDTE [P-1, non-sulfated synthetic peptide of GPIbα residues 268-285]

residual binding of Y1 (% of baseline) [1]: 89% | residual binding of Y1 (% of baseline) [2]: 85% | residual binding of Y1 (% of baseline, Geo mean) [3]: 96% | residual binding of Y1 (% of baseline) [4]: 121% | residual binding of Y1 (% of baseline, Geo mean) [5]: 119% | residual binding of Y1 (% of baseline) [6]: 100%
Binder: REEGRQHFFLLEGRSSYS [EGR negative control peptide]

concentration needed to reach 0.8 OD units [16]: 12.8 微克/毫升
B2: CONY1, Y1 scFv monomer in which the myc tag is deleted or replaced by Lys-Ala-Lys (KAK) (scFv)
scFv: EVQLVESGGGVVRPGGSLRLSCAASGFTFDDYGMSWVRQAPGKGLEWVSGINWNGGSTGYADSVKGRFTISRDNAKNSLYLQMNSLRAEDTAVYYCARMRAPVIWGQGTLVTVSRGGGGSGGGGSGGGGSSELTQDPAVSVALGQTVRITCQGDSLRSYYASWYQQKPGQAPVLVIYGKNNRPSGIPDRFSGSSSGNTASLTITGAQAEDEADYYCNSRDSSGNHVVFGGGTKLTVLG

peptide concentration at which Y1 binding is effectively inhibited [7]: 1 µM
Binder: QATEYEYLD[sY]DFLPETE [P-YYY*, PSGL-1 N-terminal peptide sulfated on the third tyrosine]

residual binding of Y1 (% of baseline) [17]: 21% | residual binding of Y1 (% of baseline, Geo mean) [3]: 82% | residual binding of Y1 (% of baseline) [18]: 80% | residual binding of Y1 (% of baseline) [19]: 67% | residual binding of Y1 (% of baseline, Geo mean) [5]: 26%
Binder: GDEGDTDL[sY]D[sY][sY]P [P-3-S, sulfated synthetic peptide of GPIbα residues 268-280]

residual binding of Y1 (% of baseline) [17]: 15% | residual binding of Y1 (% of baseline, Geo mean) [3]: 61% | residual binding of Y1 (% of baseline) [18]: 78% | residual binding of Y1 (% of baseline) [19]: 52% | residual binding of Y1 (% of baseline, Geo mean) [5]: 7%
Binder: TDL[sY]D[sY][sY]PEEDTE [P-2-S, sulfated synthetic peptide of GPIbα residues 273-285]

— patent publication CN1649900A
